The values below come from PMC10443974.

The test concerns the target unmodified, wild-type (WT) human FcRn (neonatal Fc receptor) (human) (UniProt P55899). The experiment in a line: FcRn affinity chromatography with pH monitor.
Chain of UniProt P55899 (P55899 24-297, chain 1 of 2): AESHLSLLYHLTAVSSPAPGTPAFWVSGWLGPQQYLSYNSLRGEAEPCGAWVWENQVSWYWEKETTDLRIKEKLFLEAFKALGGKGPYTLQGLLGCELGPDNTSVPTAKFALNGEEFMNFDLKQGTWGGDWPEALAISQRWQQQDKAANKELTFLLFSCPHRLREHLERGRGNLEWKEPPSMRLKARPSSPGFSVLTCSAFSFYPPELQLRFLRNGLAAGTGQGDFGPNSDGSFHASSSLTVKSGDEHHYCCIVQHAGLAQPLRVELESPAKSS
Chain of UniProt P55899 (P61769 21-119, chain 2 of 2, further chain): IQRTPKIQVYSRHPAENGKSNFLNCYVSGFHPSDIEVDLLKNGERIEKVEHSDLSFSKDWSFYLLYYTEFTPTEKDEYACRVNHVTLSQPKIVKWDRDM
As for “NIST mAb (reference material RM8671) (antibody)”, the FcRn dissociation pH (mean) was 7.22 pH. As for adalimumab (antibody), the figure is 7.39 pH. As for briakinumab (antibody), the figure is 7.81 pH. As for cetuximab (antibody), the figure is 7.25 pH. Consider cusatuzumab (antibody), for which the FcRn dissociation pH (mean) is 7.12 pH. As for durvalumab (antibody), the figure is 7.28 pH; as for margetuximab (antibody), 7.34 pH. With rituximab (antibody), the FcRn dissociation pH (mean) is 7.43 pH.
